From publication PMC7763485, “Quantifying the Monomer–Dimer Equilibrium of Tubulin with Mass Photometry” (Journal of Molecular Biology, 2020)

Molecular target: β-tubulin (porcine, UniProt P02554 1-445)
Assay: mass photometry; label-free, in free solution; tubulin diluted in BRB80 buffer to 1 to 60 nM total monomer, no added GTP; 20 min equilibration after dilution (also measured immediately after dilution); Kd computed from counts of monomers and dimers in each single distribution; heterodimer to monomers
Details: both partners purified

Sequence of β-tubulin (P02554 whole entry): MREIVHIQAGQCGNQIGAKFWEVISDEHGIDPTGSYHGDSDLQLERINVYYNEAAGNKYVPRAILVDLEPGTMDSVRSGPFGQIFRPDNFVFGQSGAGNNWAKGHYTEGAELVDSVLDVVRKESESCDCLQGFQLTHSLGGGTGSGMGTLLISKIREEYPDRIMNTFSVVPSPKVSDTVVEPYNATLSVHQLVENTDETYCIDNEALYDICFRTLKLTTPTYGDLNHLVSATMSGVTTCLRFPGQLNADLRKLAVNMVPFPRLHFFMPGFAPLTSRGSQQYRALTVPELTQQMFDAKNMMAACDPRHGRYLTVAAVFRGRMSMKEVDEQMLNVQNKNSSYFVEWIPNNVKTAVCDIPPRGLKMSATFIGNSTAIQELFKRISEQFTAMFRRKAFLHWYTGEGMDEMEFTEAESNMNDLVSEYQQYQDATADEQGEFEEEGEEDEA

dimer:monomer ratio at 60 nM total tubulin: ~2
B1: α-tubulin (natural protein)
chain: MRECISIHVGQAGVQIGNACWELYCLEHGIQPDGQMPSDKTIGGGDDSFNTFFSETGAGKHVPRAVFVDLEPTVIDEVRTGTYRQLFHPEQLITGKEDAANNYARGHYTIGKEIIDLVLDRIRKLADQCTGLQGFSVFHSFGGGTGSGFTSLLMERLSVDYGKKSKLEFSIYPAPQVSTAVVEPYNSILTTHTTLEHSDCAFMVDNEAIYDICRRNLDIERPTYTNLNRLIGQIVSSITASLRFDGALNVDLTEFQTNLVPYPRAHFPLATYAPVISAEKAYHEQLSVAEITNACFEPANQMVKCDPRHGKYMACCLLYRGDVVPKDVNAAIATIKTKRTIQFVDWCPTGFKVGINYEPPTVVPGGDLAKVQRAVCMLSNTTAIAEAWARLDHKFDLMYAKRAFVHWYVGEGMEEGEFSEAREDMAALEKDYEEVGVDSVEGEGEEEGEEY
modifications: Brain-purified isotype mixture, isotype not named; TUBA1A taken as representative by convention. Native brain PTMs are likely but not specified. GTP at the non-exchangeable site as purified; the …
